In publication PMC7764402:

Molecular target: Vorin-cat (C-terminal catalytic mART domain of Vorin), wild type (Erwinia amylovora ATCC BAA-2158)
Assay: SEC; IMAC-purified Vorin-cat/VorinI (5 mg) on HiLoad 16/60 Superdex-200; fractions analysed by SDS-PAGE with Coomassie stain; dialysed against 50 mM Tris pH 7.5, 250 mM NaCl, 10% glycerol before the run

## VorinI (Vorin Immunity protein) (natural protein)
  stoichiometry N (VorinI per Vorin-cat): 1
